{
  "source": "patent US10654918B2",
  "about": "“Inflammatory disease diagnosis and methods of treatment using down-regulators of lipopolysaccharide-responsive beige-like anchor” (University of South Florida, priority 2013, dated 2020)",
  "molecules": {"B1": {"name": "LRBA shRNA: shRNA plasmid against LRBA; targeted LRBA sequence SEQ ID No. 15 GGGATATTGTAGAAACTGTCTTT (nucleic acid)", "sense": "GGGATATTGTAGAAACTGTCTTTTTCAAGAGAAAAGACAGTTTCTACAATATCCCTTTTTT", "antisense": "CCCTATAACATCTTTGACAGAAAAAGTTCTCTTTTCTGTCAAAGATGTTATAGGGAAAAAA"}},
  "key": {"Raji cells": {"system": "Raji cells", "test": "Cell surface CVID and TLR4 receptors on LRBA WT and LRBA KD Raji cells (flow cytometry)", "assay_type": "cell-based, human", "from_the_text": "LRBA is an important vesicle trafficking regulator (Wang, et al., Identification of a novel lipopolysaccharide-inducible gene with key features of both A kinase anchor proteins and chs1/beige proteins. 2001. J Immunol 166: 4586-4595; Cullinane, et al., The BEACH Is Hot: A LYST of Emerging Roles for BEACH-Domain Containing Proteins in Human Disease. 2013. Traffic) and may function as a master regulator of multiple CVID receptors. To test this, LRBA WT and LRBA KD Raji cells were stimulated with LPS, and the cell surface levels of CVID receptors and TLR4 were analyzed by flow cytometry. BD FACSelect Multicolor Panel Designer was used to search antibodies and build up the panel for multiple color cytometry for LSRII FACS machine. Fluorophores directly conjugated antibodies against cell surface CVID proteins were used: CD19-PerCP-Cy5.5, CD2O-PE-Cy7, CD21-V450, BAFFR-PE, TACI-APC, and CD81-APC-H7. Two panels were used when use live/dead discrimination with DAPI […] or 7AAD (overlap with V450). The standard staining procedures were followed and 20,000 to half million cells were acquired. Data acquisition was performed using FACS LSRII flow cytometers and analyzed using FACSDiva version 6.1.2."}, "A549 cells": {"system": "A549 cells", "test": "Western blot of A549 and A549 pLAsiGFP cells treated with LPS", "assay_type": "cell-based, human", "conditions": "for TLR4 levels (Western blot): vs untransfected A549 cells", "description": "(§1) FIGS. 4A-B are a blot and graph showing knockdown of LRBA increases the TNFα levels in A549 cells (adenocarcinomic human alveolar basal epithelial cells). A549 cells and A549 pLAsiGFP cells (stably transfected with shRNA plasmid against LRBA) were treated with LPS (1 μg/ml). The TNFα concentrations were detected by Western blot. Cells were cultured in 6-well plates and stimulated with LPS (1 μg/ml) for different time as shown, then lysed with RIPA buffer. Western blots were carried out. TNFα antibody (sc-1351. Santa Cruz Biotechnology, Santa Cruz, USA) was used at 1:500 ratio and incubated at 4° C. overnight. BioRad ChemiDoc XRS and Quantity One software were used to acquire gel image and measure band relative intensity. (A) Western blot. 1. A549 No LPS, 2. A549 LPS 30 min, 3. A549 LPS 1 hr, 4. A549 LPS 2 h, 5. A549 LPS 4 h, 6. A549 LPS 24 h, 7. A549 pLAsiGFP LPS 2 h, 8. A549 pLAsiGFP LPS 4 h, 9. A549 pLAsiGFP LPS 24 h. (B) Band intensity quantification from A.\nas §1, with “FIG. 17(A)-(B)” for “FIGS. 4A-B”, “series of graphs” for “blot and graph”, “TLR4” for “TNFα”, “cells.” for “cells (adenocarcinomic human alveolar basal epithelial cells).”\nFIGS. 31(A) and (B) are a blot and graph showing knockdown of LRBA decreases the total NFκB levels in A549 cells. A549 LIRII cells (stably transfected with pLRBA-VHS) and A549 pLAsiGFP cells (stably transfected with shRNA plasmid against LRBA) were treated with LPS (1 μg/ml). The NFκB concentrations were detected by Western blot. Cells were cultured in 6-well plates and stimulated with LPS (1 μg/ml) for different time as shown, then lysed with RIPA buffer. Western blots were carried out. NF-κB2 p100/p52 Antibody #4882 (Cell Signaling Technology, Danvers, Mass., USA) was used at 1:500 ratio and incubated at 4° C. overnight. BioRad ChemiDoc XRS and Quantity One software were used to acquire gel image and measure band relative intensity. A. Western blot. B. Band intensity quantification from A."}, "[1]": {"conditions": "Raji cell surface, LPS stimulated, Knockdown"}},
  "data": [
    {"molecule": "B1", "values": [
      {"measurement": "BAFFR Median Intensity", "setting": "Raji cells; [1]", "result": "4198.00 ± 496.75 arbitrary fluorescence intensity units"},
      {"measurement": "BAFFR Percentage", "setting": "Raji cells; [1]", "result": "90.83 ± 0.93", "unit": "%"},
      {"measurement": "CD19 Median Intensity", "setting": "Raji cells; [1]", "result": "5830.17 ± 159.95 arbitrary fluorescence intensity units"},
      {"measurement": "CD19 Percentage", "setting": "Raji cells; [1]", "result": "98.57 ± 0.28", "unit": "%"},
      {"measurement": "CD20 Median Intensity", "setting": "Raji cells; [1]", "result": "29541.25 ± 332.06 arbitrary fluorescence intensity units"},
      {"measurement": "CD20 Percentage", "setting": "Raji cells; [1]", "result": "99.18 ± 0.04", "unit": "%"},
      {"measurement": "CD21 Median Intensity", "setting": "Raji cells; [1]", "result": "1659.50 ± 72.48 arbitrary fluorescence intensity units"},
      {"measurement": "CD21 Percentage", "setting": "Raji cells; [1]", "result": "55.08 ± 5.00", "unit": "%"},
      {"measurement": "TACI Median Intensity", "setting": "Raji cells; [1]", "result": "1813.50 ± 412.89 arbitrary fluorescence intensity units"},
      {"measurement": "TACI Percentage", "setting": "Raji cells; [1]", "result": "7.38 ± 1.49", "unit": "%"},
      {"measurement": "TLR4 Median Intensity", "setting": "Raji cells; [1]", "result": "11204.60 ± 2171.10 arbitrary fluorescence intensity units"},
      {"measurement": "TLR4 Percentage", "setting": "Raji cells; [1]", "result": "31.27 ± 11.42", "unit": "%"},
      {"measurement": "BAFFR Median Intensity fold", "setting": "Raji cells; Wild type vs Knockdown", "result": "0.81↑"},
      {"measurement": "BAFFR Percentage fold", "setting": "Raji cells; Wild type vs Knockdown", "result": "0.96↑"},
      {"measurement": "CD19 Median Intensity fold", "setting": "Raji cells; Wild type vs Knockdown", "result": "1.23↓"},
      {"measurement": "CD19 Percentage fold", "setting": "Raji cells; Wild type vs Knockdown", "result": 1.00},
      {"measurement": "CD20 Median Intensity fold", "setting": "Raji cells; Wild type vs Knockdown", "result": "1.21↓"},
      {"measurement": "CD20 Percentage fold", "setting": "Raji cells; Wild type vs Knockdown", "result": 1.00},
      {"measurement": "CD21 Median Intensity fold", "setting": "Raji cells; Wild type vs Knockdown", "result": "0.96↑"},
      {"measurement": "CD21 Percentage fold", "setting": "Raji cells; Wild type vs Knockdown", "result": "0.49↑"},
      {"measurement": "TACI Median Intensity fold", "setting": "Raji cells; Wild type vs Knockdown", "result": "1.33↓"},
      {"measurement": "TACI Percentage fold", "setting": "Raji cells; Wild type vs Knockdown", "result": "4.07↓"},
      {"measurement": "TLR4 Median Intensity fold", "setting": "Raji cells; Wild type vs Knockdown", "result": 1.04},
      {"measurement": "TLR4 Percentage fold", "setting": "Raji cells; Wild type vs Knockdown", "result": "1.82↓"},
      {"measurement": "TLR4 levels (Western blot)", "setting": "A549 cells; 2 h and 4 h after LPS stimulation (1 μg/ml)", "result": "increases"},
      {"measurement": "TLR4 levels (Western blot)", "setting": "A549 cells; 24 h after LPS", "result": "no difference"},
      {"measurement": "total NFκB levels (Western blot)", "setting": "A549 cells; LPS 1 μg/ml, A549 pLAsiGFP cells", "result": "decreases"},
      {"measurement": "TNFα levels (Western blot)", "setting": "A549 cells; LPS 1 μg/ml, A549 pLAsiGFP vs A549", "result": "increases"}
    ]}
  ]
}
